Source: the DeepSol protein solubility set

assay: soluble on expression in E. coli; label from the status in PepcDB or PDB records

Row | Sequence | soluble on expression in E. coli
1 | MSLKRDELKLDYQRHQFYEYFNSIFNYDILDASISENIYLLRKTTDKLFYIEFENQLFETVMFLSMKTLVLDINSFSKEIGNKSEAYEQYIQQIKEENGINNFFDRYPYLLKQINREVRLIEESYSLLFDRFLKDLSELRSCFNITEPLSNVEFSLGDSHSQKQTVVKIEFKGKSIYYKPKSYDSYNILLELISLLKSNNIPSFSLPESLIKADYCWQLGVDYINSNNDEVKRIYFKYGVLAAFSEIFSITDLHMENVIVSGGDLYLIDVETFFQRKLNVQTNNFEGITVDTYQRIYETSLSNGLFPVQFEKNSAPNISGISGKGGKRKKGKYELINKNRGDMKLVKTDYFQEDSYNIPTLNEKMVEPLDYANEVIAGFRECYTFLMTQRAKVKKILYGFPKLRTRAIFRNTSDYGKFLQASTNPKYLFSEKKRENLFSILYESKHIEQFIVDSEIKDLMNGDIPYFSMDPNGNVYNSLGTVIGNLGKTTSLFDNIATLNDERMKFTCELIGIVLKKPIKHWERKDGKSYYFPSISSKQSFNEEILRQREGHHHHHH | soluble
2 | IVHREHHESREEVSVSSGKNNPFYFNSDRWFRTLYRNEWGHIRVLQRFDQRSKQMQNLENYRVVEFKSKPNTLLLPHHADADFLLVVLNGTAVLTLVNPDSRDSYILEQGHAQKIPAGTTFFLVNPDDNENLRIIKLAIPVNNPHRFQDFFLSSTEAQQSYLRGFSKNILEASFDSDFKEINRVLFGEERQQQQGEESREEGVIVELKREQIQELMKHAKSSSRKELSSQDEPFNLRNSKPIYSNKFGRWYEMTPEKNPQLKDLDVFISSVDMKEGALLLPHYSSKAIVIMVINEGEAKIELVGLSDQQQQKQQEESLEVQRYRAELSEDDVFVIPAAYPVAINATSNLNFFAFGINAENNRRNFLAGGKDNVMSEIPTEVLEVSFPASGKKVEKLIKKQSESHFVDAQPEQQQREEGHKGRKGSLSSILGSLY | soluble
3 | MGSDKIHHHHHHMKQLFDNVSAMCSKLTTKKYSTSFSLGIHFLHKKLHDPVYAIYGFVRFADEIVDSFHGYDKKRLMAQFRRDTAFALQDKISLNPILNSFQHVVHTYNIEWELIDTFLKSMEMDLDQSAHNEQSYKEYIIGSAEVVGLMCLRVFVKGDVDMYEKQKPHAMSLGAAFQKVNFLRDAKEDFDSLGRTYFPDVSMEKFDRHIKQNIESDIEKDFQHALIGIKQLPAESRLGVYLAYIYYKNLFHKIKSIPPERMLKERIRIPNLNKFALLFQCYFRNQFNIL | not soluble
4 | MPEPTADAPTVPKARSCPFLPPDGIADIRAAAPVTRATFTSGHEAWLVTGYEEVRALLRDSSFSVQVPHALHTQDGVVTQKPGRGSLLWQDEPEHTSDRKLLAKEFTVRRMQALRPNIQRIVDEHLDAIEARGGPVDLVKTFANAVPSMVISDLFGVPVERRAEFQDIAEAMMRVDQDAAATEAAGMRLGGLLYQLVQERRANPGDDLISALITTEDPDGVVDDMFLMNAAGTLLIAAHDTTACMIGLGTALLLDSPDQLALLREDPSLVGNAVEELLRYLTIGQFGGERVATRDVELGGVRIAKGEQVVAHVLAADFDPAFVEEPERFDITRRPAPHLAFGFGAHQCIGQQLARIELQIVFETLFRRLPGLRLAKPVEELRFRHDIVFYGVHELPVTWHHHH | soluble
5 | MGSDKIHHHHHHMNNTPTPPKVLLLLTSLHGGGAERVAVHLLNRLQGRFDMRMGLLRASGPYLDQADRSRLIVAPEGETHFNFDGPNSANYRPGKLVGSAVRAPLAFRRMIRETQPDVVLSFLKGTNLLVWLALMNMGRARPRWIAREGNNVLAVIREEAPNGAVARASRDLTAKAYRRADAVLANSTDMAAGLITDLDLDPAKMRMINNPIDIDGIREAAGESLPGAPNRPFILTAGRLEYQKAHEVLLRAFARSEAWRTHALVILGKGSRLGELHRLAAQLGIGEYVRFIGFVPNPYAWMARADLFVLPSRWEGFPTVAAEAMACGTPLLLTDCRFGARDIVEPGVTGELVPVNDEAALATEIAALLASPERRSALARAGREKVERFRLERMLEAYAALFDEQFAARRR | not soluble
6 | MSESCNSLTVVFTDSPKIDDHLFAKAIRWADQNPDDTIFWARRKALERIPEIDVEFSMKAGALRRIRFGYSSKKLLQGCIDIALKASIGSEVAAIFCSMSIPQDCPELGCLLAALANFCNVDDGRAVVVIDLRDDNDDEKQEGVEESDPFENANFLEEEIVENPKELSNEPRETQTQEEFLEKLKRVASIYTKNVLLFDGNEEKFSNCF | not soluble
7 | GGVRPATNAYGGGSTTDNPNRFMYYPSHPVPGTQGGVVLAAYSWSDDAARWDSFDDAERYGYALENLQSVHGRRIEVFYTGAGQTQSWLRDPYACGEAAVYTPHQMTAFHLDVVRPEGPVYFAGEHVSLKHAWIEGAVETAVRAAIAVNEAPVGDTGVTAAAGRRGAAAATEPMREEALTS | soluble
8 | MGSDKIHHHHHHSLSGRAQTEKPSALVKVGDYRASTDFLNLSAYYQTIRPVTVKVAYVSTYKTQHTIMQKLTLPAGLTVAGNLTTTKHGSYLVPSLQLYLARLSYPALQNSAKANYTLDPGTSAYSPQATISDTTKLRAFKRVAAPDYMPGYSHGDLYIGGAKAALSPVEPTTKSIRITPDGYVEVLKYDTKANAGLGFYQKPVSLAKIVKTRFHDPNRTLYLNHPLASVKTKAITQNGQTRYRLTLKNLHTPQHIAGDPETGTAGTFDSLYSIGGTTYYTFIGYDGVSN | not soluble
9 | MSLPIRVPDELPAVNFLREENVFVMTTSRASGQEIRPLKVLILNLMPKKIETENQFLRLLSNSPLQVDIQLLRIDSRESRNTPAEHLNNFYCNFEDIQEQNFDGLIVTGAPLGLVEFNDVAYWPQIKQVLEWSKDHVTSTLFVCWAVQAALNILYGIPKQTRTDKLSGVYEHHILHPHALLTRGFDDSFLAPHSRYADFPAALIRDYTDLEILAETEEGDAYLFASKDKRIAFVTGHPEYDAQTLAQEYFRDVEAGLDPEVPYNYFPHNDPQNKPRASWRSHGNLLFTNWLNYYVYQITPYDLRHMNPTLDEGHHHHHH | soluble
10 | MGSDKIHHHHHHMSALYQALPAVDKLLKTPQGEQLVAEFGHSATVNMCRDLLQQAREHIKRHENLPHFLQNTDATFQHLKEQLLLQQQVNIKTVHNLTGTVLHTNLGRALWSPAAQQAALDAMQGNVALEYDLSAGERSHRDNYISALMQQLTGAEAACVVNNNAAAVLLMLATFAQGKEVIISRGELIEIGGAFRIPDIMAQAGCKLVEVGTTNRTHLKDYRNAINENTAFLMKVHSSNYQICGFTHSVDEQELADLGKEFGIPVITDLGSGALMDLKQFGLPEEPTVQEKLQHGVDLISFSGDKLLGGPQAGIIVGKKALIQQLQAHPLKRVLRCDKVTLAGLEATFRLYLQPEKITEKLTALLLLTQPMERLQAQAEQLKVRLENRLNTNYVIAIEPSEAQIGSGSQPLARIPSVAVTIAPASEKTPAKTTALFARLLALPQPVIGRIERDKIWLDLHSLASLDRLLNSLETL | not soluble
11 | KIGFKLGGGFEYAFDNTWSLQPSLFLSTKGAKKDGNSINAMYLELPVMAAARFNVADNTNIVVNAGPYLACGIAGKTKIDLGNDTERKYDTFGDDALKRFDAGLGVGVALELGKVIVGLDGQFGLVDVEKIGNPKNTNFSIVLGYKF | not soluble
12 | MGSDKIHHHHHHLKKITNFRSLGGYQNAHGQMVKDGLIFRSGQLFELEDDQSHYLGQTLGIKHIVDMRSDDERTEFPDTVWEGADYAVLDILKDATANNASLGRMITEKGNVHENMLATYEQLALSDSAKTGYRQFIQGLLRPNEPTIFHCFAGKDRTGVGAALILKILDVSEQDIMADYLQTNAERTVANEEILAGLKERGFTDQQLKSIGEALKVDADYLRRYFQVIDQQFGPFQQYLREGLKLSAGEIAQFRDLYLQK | not soluble
13 | MKVSDILTVAIRLEEEGERFYRELSEHFNGEIKKTFLELADQERIHAEIFRKMSDQENWDEVDSYLAGYAFYEVFPDTSEILRRKDLTLKEVLDIAISVEKDSIILYYELKDGLVNSDAQKTVKKIIDQEKEHLRKLLEMKREST | not soluble
14 | MREVLYRSDIYVFGRYPMSSFIGYPGLSSSSFCTHINFFYASSCTSTARVFRKKWREIFFVLARKNFTSRAKSKIFPRHVFRDMNKEIFRTQTI | not soluble
15 | MSEDGEISLSPNSAALMDGLDDFIIDKNCSGIIPNEDLERETPSADDDAEVKTSSNWAKNMRKRMFGEQCDEPEESEKKRRRTNCCFNCRGGDHSIAQCPEPKNFAEIRKNKLEFMNDKQQQHQPTGRISQVTEQQQEAKFKPGRLSQNLRKALSLGPDDIPEWVYRMRRLGFYRGYPPGYLRKSLKREFATLKIYSEDHNQEEVDNDDDEEARPAPTIQSEKVHFYMGFNKTYGALRDRERGRFEVPPFDIFCEMLQTEVARDHEGTEKIRIREERHQRSELRKIREQQKEEEEQQQRDSAEKVEKEVTVDQTISEVAAAAAAVEEKPGTPEPVGRMGESISEFIGTPIFSRRDVTGTWIEDTVPSLEAFSVGIVPFEAKEEEKPRGIFKKIMSTLKGITGRNSGDDEMKKKE | not soluble
16 | MGSDKIHHHHHHMIQVPASFDIQGHRGCRGLLPENTIAAFTKALLLGVTTLEFDLVISKDNRVVVSHDTFFHHEITMMVDGEDVTEANEKNFNLYAMNYADIKEIDVGMKTHPRFKSQKKVPAVKPLFRELIETAEKLSAKIQYNGEIKSTVEGDNIDHPNIALFCDLVVAEIKKAHITDRFTLQSFDVRALEYMHSQYPDIKLSYLVETKGTLKKQLEKLSFTPAVYSPDVTLVSKKDIDAAHKLGMRVIPWTVNTKEEIETLISLGVDGIITDYPDLFFEK | not soluble
17 | QDWLTFQKKHITNTRDVDCDNIMSTNLFHCKDKNTFIYSRPEPVKAICKGIIASKNVLTTSEFYLSDCNVTSRPCKYKLKKSTNKFCVNCANQAPVHFVGVGSC | soluble
18 | MHGKDPFSDFREFINTMESRVQELGKAYGVEHLAGPQGFAVRYLFENQDKEIFIKDIEKKLSISKSVASNLVKRMEKNGFVELVTSDKDKRYKYVHLTDLGKKKAQDVGHFREAIHGQLLDGISKEDAETAFRVFHQIRKNLEKNKELEHHHHHH | soluble
19 | MGHHHHHHSHMVGSRRVKAQTFAERRERSFSRSWSDPTPMKADTSHDSRDSSDLQSSHCTLDEAFEDLDWDTEKGLEAVACDTEGFVPPKVMLISSKVPKAEYIPTIIRRDDPSIIPILYDHEHATFEDILEEIERKLNVYHKGAKIWKMLIFCQGGPGHLYLLKNKVATFAKVEKEEDMIHFWKRLSRLMSKVNPEPNVIHIMGCYILGNPNGEKLFQNLRTLMTPYRVTFESPLELSAQGKQMIETYFDFRLYRLWKSRQHSKLLDFDDVL | not soluble
20 | MEVCSTVTTKKLSSLAKLILFTIQKVSDASRHKLLTTLDPHLLAKRGKILRKSLNEAVSTSHSRITCRPSDHQDVRSSFISPVPLQLEYEFSCSSTPPRRSYATTVSKGRRSNGSHNRPLINKRQRQAYIRYNTLPKVRDSIWDRHVAAAVFPDVASSTGTMESCHVDRAAEEFIQSFYRQLRLQKWMMAQEV | not soluble
21 | MSLRTKSWTDDLKVCNQTGVGEAINQIYKDDGRRCEGYESRDKKCLCISDNNTSLYAILSGHNGVTVAENALQEMAAELLLGQLNVCNTDEAVKELIRQSFMSVEKGYFDSINPHVATKTAIQLHLSADGMNQYEISQQFENVLQKLDSLNNALSVGSSAVLALIHRSHLYLGNIGNCRALLCKTDEHDTLTVTQLSVDHNLLNAEEAARLFRLGLMAQNFEGVPLYSTRCIGNYLGKAGYKDCNFLSSATAEPVIFEPEIVGGIQITPACRFLVLMSSGLCRALHEIFPGDASTGNRELVRMISEEFQNQSTLGGVAQSVVHRIVQAHHDTYMQLVEEHRSVTFNSRDDVTLLIRNFNYAEGHHHHHH | soluble
